Reference: patent US20230064978A1, “CYCLIC PEPTIDE RECEPTOR LANTHIONINE SYNTHETASE C-LIKE PROTEIN (LANCL) AND USES THEREOF” (LATERAL IP PTY LTD, priority 2019, published 2023)
“Also recorded” adds a separate entry of the source. Bridges are numbered along the chain shown (N, C = ends). Where no end group is shown, it is not given here.

Columns and labels:
[1] = tested on: Dorsal root ganglion (DRG) neurons; assay: Cell-binding fluorescence on cultured DRG neurons, paclitaxel neuropathy model; assay type: cell-based; conditions: DRG neurons from paclitaxel-treated vs untreated mice; probe 5 μM (FIG. 1)
Method: The cell-binding fluorescence protocol can be briefly described as follows. […] Model of chemotherapy-induced peripheral neuropathy was generated using paclitaxel in female C57/B16 mice—[…] Paclitaxel or vehicle (10 ml/kg body weight) injected intravenously (i.v.) on day 1, day 3 and day 5. Mechanical allodynia was confirmed using von Frey (VF) filaments 9 days after starting vehicle or paclitaxel treatment (left and right paws). Each of the ten C57/B16 mice (vehicle control and paclitaxel treated) were euthanized by CO2 inhalation and individually dissected.
L5-L6 DRGs were rapidly dissected and placed in Petri dishes containing dissection medium. Meninges were removed.
Each DRG pool was successively: • incubated in dissociation buffer (0.5 mg/ml Dispase, 2.5 mg/ml collagenase, 6 mg/ml BSA, 10 mM HEPES) for 30 min at 37° C. under gentle agitation at 800 rounds/min; • washed; • triturated in culture medium and filtered on a 40 μm filter; • re-suspended in 1 ml culture medium supplemented with nerve growth factor (NGF) 250 ng/ml.
Dissociated cells from each pool were counted, seeded on Poly-D-Lysin- and Laminin-coated μ slides at the density of 4×10^4 cells/well and incubated at 37° C. 5% CO2. The medium was changed daily for 3 days. […]

[2] = molecular target: Recombinant human 6His-LaNCL1 protein (Homo sapiens, UniProt O43813); assay: In-vitro photolabelling of 6His-LanCL1 and LC-MS/MS to identify binding site
Method: Recombinant human 6His-LaNCL1 protein (2 μM, 1 nmol, 53 μg) in 530 μL PBS was pre-incubated with 50 μM of LAT8881 or DMSO for 10 min and then treated with 25 μM LAT9991-PAL for another 30 min at RT in Nunc™ MicroWell™ 96-well plates (Thermo Fisher Scientific cat #167008) (final reaction volume, 530 μL). The samples were UV-irradiated (365 nm) for 20 min at 4° C. After UV-irradiation, the samples were split in two different samples containing 3 μg or 50 μg of protein.
Protein samples (3 μg protein) were adjusted to 1% SDS and 10 mM DTT. After incubation for 1 h at 56° C., protein samples were treated with 30 mM iodoacetamide for 45 min at RT in the dark. Dry acetone (9 volumes) prechilled to −20° C. was added and the cloudy mixture was vortexed thoroughly and incubated at −20° C. overnight. After centrifugation (15,000×g for 10 min at 4° C.), the supernatants were poured off and the remaining pellets washed with −20° C. acetone. […] After removing the supernatants, the protein pellets were air-dried and dissolved in laemmli buffer, heated at 60° C. for 20 minutes and analyzed by in gel fluorescence scanning […]
Peptides were analyzed by nanoLC-MS/MS with the Ultimate 3000 RSLC (Thermo Fisher Scientific) coupled online to a Q-Exactive Plus mass spectrometer with a NanoFlex source. […]

Chain of Recombinant human 6His-LaNCL1 protein (O43813 with tags, fused parts or gaps): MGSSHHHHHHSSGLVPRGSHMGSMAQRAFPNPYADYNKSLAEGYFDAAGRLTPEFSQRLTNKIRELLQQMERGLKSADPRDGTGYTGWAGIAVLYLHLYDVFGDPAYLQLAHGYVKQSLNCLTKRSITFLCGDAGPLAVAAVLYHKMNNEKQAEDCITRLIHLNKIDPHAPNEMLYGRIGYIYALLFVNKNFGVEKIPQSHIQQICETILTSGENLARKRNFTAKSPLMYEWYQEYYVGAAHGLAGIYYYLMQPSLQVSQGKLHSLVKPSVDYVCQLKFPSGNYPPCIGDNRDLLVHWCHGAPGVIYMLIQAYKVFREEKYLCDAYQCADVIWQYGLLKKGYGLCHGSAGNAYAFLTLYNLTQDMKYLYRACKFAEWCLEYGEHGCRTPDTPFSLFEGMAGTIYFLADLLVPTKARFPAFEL

Substance: LAT9991-PAL: cyclic peptide of SEQ ID NO:12 (LAT9991) conjugated to the PAL (Photo-Activated Labelling) grouping (CRSVEGSCG; disulfide 1-8 (inferred); also: PAL group on N-terminal Cys-Arg part)
- Binding of PAL probe to DRG neurons [1]: can be seen in DRG neurons from mice treated with paclitaxel (neuropathic pain model), but not in control untreated mice; also recorded: only to neurons from treated and neuropathic animals
- Modified LANCL1 peptide sequence differentially detected ([2]; 25 μM probe, dependent peptide MS analysis): IDPHAPNEM(ox)LYGR
- Most likely site for localization of the probe adduct on LANCL1 ([2]; amino acid residues 171-174 of human LANCL1 (SEQ ID NO:56)): PNEM
